These results are taken from the supplement of paper PMC10219994.

To fix the notation:
B1: library; a variant is named by its letters at N, in order (parent)
chain: GAGACCGCAACTGAAAAGTTGTGGNNNNNATAGTGAGTCGCTGCCTGCAAAGACACAACT

± gives the standard deviation of the averaged measurements.

Variants of B1 are the subject of this data set. In words: ligation selection enrichment (abundance after / before one-round selection) (fold); higher = more template-directed ligation activity. Particulars: with T7Psub CACGGAUGCUAAUACGACUCACUAUA; MgCl2 25 mM; 42 °C; 4 h; pH 8.5. Put shortly:
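Two independent reactions combined a T7-transcribed RNA ligase library with five randomized core positions (0.75 μM) and RNA substrate (6 μM) in 50 mM EPPS pH 8.5, 25 mM MgCl2, run for 4 h at 42 °C. The ligated products were sequenced on a MiSeq, and only reads with quality ≥30 at all randomized positions were counted. Enrichment is the abundance after ligation divided by the abundance before ligation.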
On to GAGACCGCAACTGAAAAGTTGTGGCCGGCATAGTGAGTCGCTGCCTGCAAAGACACAACT [CCGGC], for which the ligation selection enrichment was 0.1797 ± 0.00074. In the case of GAGACCGCAACTGAAAAGTTGTGGACGCTATAGTGAGTCGCTGCCTGCAAAGACACAACT [ACGCT] it was 0.449 ± 0.15; in that of GAGACCGCAACTGAAAAGTTGTGGACGCGATAGTGAGTCGCTGCCTGCAAAGACACAACT [ACGCG], 0.622 ± 0.021. As for GAGACCGCAACTGAAAAGTTGTGGACGCCATAGTGAGTCGCTGCCTGCAAAGACACAACT [ACGCC], the figure is 0.153 ± 0.035; as for GAGACCGCAACTGAAAAGTTGTGGACGCAATAGTGAGTCGCTGCCTGCAAAGACACAACT [ACGCA], 0.248 ± 0.016; as for GAGACCGCAACTGAAAAGTTGTGGTCCGCATAGTGAGTCGCTGCCTGCAAAGACACAACT [TCCGC], 0.113 ± 0.026.

As to GAGACCGCAACTGAAAAGTTGTGGTCCGAATAGTGAGTCGCTGCCTGCAAAGACACAACT [TCCGA], the ligation selection enrichment was determined as 0.205 ± 0.034.

Consider GAGACCGCAACTGAAAAGTTGTGGTCCGGATAGTGAGTCGCTGCCTGCAAAGACACAACT [TCCGG], for which the ligation selection enrichment is 0.133 ± 0.0031. As for GAGACCGCAACTGAAAAGTTGTGGTCCGTATAGTGAGTCGCTGCCTGCAAAGACACAACT [TCCGT], the figure is 0.123 ± 0.096. GAGACCGCAACTGAAAAGTTGTGGCCCTTATAGTGAGTCGCTGCCTGCAAAGACACAACT [CCCTT]: the ligation selection enrichment came out at 0.213 ± 0.065. On to GAGACCGCAACTGAAAAGTTGTGGCCCTCATAGTGAGTCGCTGCCTGCAAAGACACAACT [CCCTC], for which the ligation selection enrichment amounted to 0.14 ± 0.025. For the variant GAGACCGCAACTGAAAAGTTGTGGCCCTGATAGTGAGTCGCTGCCTGCAAAGACACAACT [CCCTG], the ligation selection enrichment amounted to 0.425 ± 0.013. On to GAGACCGCAACTGAAAAGTTGTGGCCCTAATAGTGAGTCGCTGCCTGCAAAGACACAACT [CCCTA], for which the ligation selection enrichment is 0.186 ± 0.0061. As for GAGACCGCAACTGAAAAGTTGTGGCCGCAATAGTGAGTCGCTGCCTGCAAAGACACAACT [CCGCA], the figure is 0.206 ± 0.0029; as for GAGACCGCAACTGAAAAGTTGTGGCCGCCATAGTGAGTCGCTGCCTGCAAAGACACAACT [CCGCC], 0.148 ± 0.0024. In the case of GAGACCGCAACTGAAAAGTTGTGGCCGCTATAGTGAGTCGCTGCCTGCAAAGACACAACT [CCGCT] it was 0.4 ± 0.15; in that of GAGACCGCAACTGAAAAGTTGTGGCCGCGATAGTGAGTCGCTGCCTGCAAAGACACAACT [CCGCG], 0.499 ± 0.059. As for GAGACCGCAACTGAAAAGTTGTGGTCGAGATAGTGAGTCGCTGCCTGCAAAGACACAACT [TCGAG], the figure is 0.7035 ± 0.0067; as for GAGACCGCAACTGAAAAGTTGTGGTCGATATAGTGAGTCGCTGCCTGCAAAGACACAACT [TCGAT], 13.3 ± 3.8. Regarding GAGACCGCAACTGAAAAGTTGTGGTCGACATAGTGAGTCGCTGCCTGCAAAGACACAACT [TCGAC], the ligation selection enrichment worked out at 1.74 ± 0.36. Take GAGACCGCAACTGAAAAGTTGTGGTCGAAATAGTGAGTCGCTGCCTGCAAAGACACAACT [TCGAA]: the ligation selection enrichment came out at 0.975 ± 0.19. GAGACCGCAACTGAAAAGTTGTGGGCGTAATAGTGAGTCGCTGCCTGCAAAGACACAACT [GCGTA]: the ligation selection enrichment stood at 0.332 ± 0.038. In the case of GAGACCGCAACTGAAAAGTTGTGGACGGAATAGTGAGTCGCTGCCTGCAAAGACACAACT [ACGGA], the ligation selection enrichment was found to be 0.204 ± 0.033. As for GAGACCGCAACTGAAAAGTTGTGGACGGTATAGTGAGTCGCTGCCTGCAAAGACACAACT [ACGGT], the figure is 0.169 ± 0.025. Take GAGACCGCAACTGAAAAGTTGTGGACGGGATAGTGAGTCGCTGCCTGCAAAGACACAACT [ACGGG]: the ligation selection enrichment turned out to be 0.165 ± 0.012. In the case of GAGACCGCAACTGAAAAGTTGTGGACGGCATAGTGAGTCGCTGCCTGCAAAGACACAACT [ACGGC] it was 0.122 ± 0.01.

Take GAGACCGCAACTGAAAAGTTGTGGGCCGAATAGTGAGTCGCTGCCTGCAAAGACACAACT [GCCGA]: the ligation selection enrichment turned out to be 1.35 ± 0.035.

In the case of GAGACCGCAACTGAAAAGTTGTGGGCCGTATAGTGAGTCGCTGCCTGCAAAGACACAACT [GCCGT], the ligation selection enrichment was 0.214 ± 0.082. As for GAGACCGCAACTGAAAAGTTGTGGGCCGGATAGTGAGTCGCTGCCTGCAAAGACACAACT [GCCGG], the figure is 0.313 ± 0.024; as for GAGACCGCAACTGAAAAGTTGTGGGCCGCATAGTGAGTCGCTGCCTGCAAAGACACAACT [GCCGC], 0.205 ± 0.036; as for GAGACCGCAACTGAAAAGTTGTGGTCGCCATAGTGAGTCGCTGCCTGCAAAGACACAACT [TCGCC], 0.155 ± 0.028. Regarding GAGACCGCAACTGAAAAGTTGTGGTCGCGATAGTGAGTCGCTGCCTGCAAAGACACAACT [TCGCG], the ligation selection enrichment was 0.485 ± 0.036. Turning to GAGACCGCAACTGAAAAGTTGTGGTCGCTATAGTGAGTCGCTGCCTGCAAAGACACAACT [TCGCT], the ligation selection enrichment was found to be 0.299 ± 0.075. Turning to GAGACCGCAACTGAAAAGTTGTGGTCGCAATAGTGAGTCGCTGCCTGCAAAGACACAACT [TCGCA], the ligation selection enrichment was determined as 0.269 ± 0.054. As to GAGACCGCAACTGAAAAGTTGTGGGCCCTATAGTGAGTCGCTGCCTGCAAAGACACAACT [GCCCT], the ligation selection enrichment is 0.424 ± 0.17. Regarding GAGACCGCAACTGAAAAGTTGTGGTCCTCATAGTGAGTCGCTGCCTGCAAAGACACAACT [TCCTC], the ligation selection enrichment was 0.107 ± 0.011. In the case of GAGACCGCAACTGAAAAGTTGTGGTCCTAATAGTGAGTCGCTGCCTGCAAAGACACAACT [TCCTA] it was 0.147 ± 0.063; in that of GAGACCGCAACTGAAAAGTTGTGGTCCTTATAGTGAGTCGCTGCCTGCAAAGACACAACT [TCCTT], 0.232 ± 0.029; in that of GAGACCGCAACTGAAAAGTTGTGGTCCTGATAGTGAGTCGCTGCCTGCAAAGACACAACT [TCCTG], 0.246 ± 0.011. As for GAGACCGCAACTGAAAAGTTGTGGTCGGCATAGTGAGTCGCTGCCTGCAAAGACACAACT [TCGGC], the figure is 0.232 ± 0.01; as for GAGACCGCAACTGAAAAGTTGTGGTCGGTATAGTGAGTCGCTGCCTGCAAAGACACAACT [TCGGT], 0.115 ± 0.0078. In the case of GAGACCGCAACTGAAAAGTTGTGGTCGGGATAGTGAGTCGCTGCCTGCAAAGACACAACT [TCGGG] it was 0.41 ± 0.01. Take GAGACCGCAACTGAAAAGTTGTGGTCGGAATAGTGAGTCGCTGCCTGCAAAGACACAACT [TCGGA]: the ligation selection enrichment stood at 0.233 ± 0.022. As for GAGACCGCAACTGAAAAGTTGTGGCCCCGATAGTGAGTCGCTGCCTGCAAAGACACAACT [CCCCG], the figure is 0.49 ± 0.0033; as for GAGACCGCAACTGAAAAGTTGTGGCCCCTATAGTGAGTCGCTGCCTGCAAAGACACAACT [CCCCT], 0.419 ± 0.21.
